These are literature values, as cited in PMC12291208.

In general, pKa refers to the negative logarithm of the acid dissociation constant.

Data set [1] has as its target Lys92 (UniProt position 174, RGLAYKYADGK). Conditions: folded protein; Lys92 buried, Lys118 solvent exposed.
Data set [2] deals with Lys118 (UniProt position 200, YVYKPKNTHEQ). The settings on record: folded protein; Lys92 buried, Lys118 solvent exposed.

“Staphylococcal nuclease (SNase) I92K variant (Staphylococcus aureus (inferred from 'staphylococcal'); I92K)”: in data set [1], the pKa is 5.2. For “Staphylococcal nuclease (SNase) N118K variant (Staphylococcus aureus (inferred from 'staphylococcal'); N118K)”, the pKa in data set [2] was 10.4.
